System: Escherichia coli TOP10
Assay: shrunken log2 fold change of peptide-encoding DNA abundance (4.5 h post-induction vs induction); higher = less antimicrobial activity (less host growth inhibition)
Conditions: time post-induction: 4.5 h; library: site-saturation at positions 5, 18, 19, 20
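Note: peptides expressed intracellularly from a pBAD plasmid library in pooled LB shake-flask culture, induced with 0.3% L-arabinose, DNA abundance read by NGS, three biological replicates, DESeq2 with apeglm shrinkage.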

Row | Sequence | shrunken log2 fold change
1 | RRIRRRPPRLPRPRPRPNTDPRP | -0.106
2 | RRIRSRPPRLPRPRPRPRTTPRP | 0.318
3 | RRIRVRPPRLPRPRPRPHHSPRP | -0.593
4 | RRIRGRPPRLPRPRPRPLDCPRP | 0.141
5 | RRIRNRPPRLPRPRPRPWKEPRP | -0.59
6 | RRIRLRPPRLPRPRPRPNSSPRP | -0.11
7 | RRIRDRPPRLPRPRPRPAPNPRP | 0.138
8 | RRIRWRPPRLPRPRPRPTGIPRP | 0.0938
9 | RRIRRRPPRLPRPRPRPNLWPRP | 0.552
10 | RRIRNRPPRLPRPRPRPTKIPRP | -0.245
11 | RRIRCRPPRLPRPRPRPCQIPRP | 0.0258
12 | RRIRYRPPRLPRPRPRPIQIPRP | -0.409
13 | RRIRERPPRLPRPRPRPYQGPRP | -0.199
14 | RRIRVRPPRLPRPRPRPWCCPRP | -0.203
15 | RRIRFRPPRLPRPRPRPTAFPRP | 0.0899
16 | RRIRGRPPRLPRPRPRPQYIPRP | -0.27
17 | RRIRCRPPRLPRPRPRPEQPPRP | 0.581
18 | RRIRNRPPRLPRPRPRPSPEPRP | -0.123
19 | RRIRLRPPRLPRPRPRPHWIPRP | -0.162
20 | RRIRIRPPRLPRPRPRPAWQPRP | 0.342
21 | RRIRCRPPRLPRPRPRPWYAPRP | -0.529
22 | RRIRERPPRLPRPRPRPTYCPRP | 0.0353
23 | RRIRERPPRLPRPRPRPYNHPRP | -0.272
24 | RRIRFRPPRLPRPRPRPNMFPRP | -0.259
25 | RRIRQRPPRLPRPRPRPNKHPRP | -0.622

Row | Sequence | shrunken log2 fold change
26 | RRIRCRPPRLPRPRPRPDCMPRP | 0.0384
27 | RRIRFRPPRLPRPRPRPSCKPRP | -0.901
28 | RRIRGRPPRLPRPRPRPVVPPRP | 0.338
29 | RRIRTRPPRLPRPRPRPNNDPRP | -0.797
30 | RRIRYRPPRLPRPRPRPLIHPRP | -1.38
31 | RRIRWRPPRLPRPRPRPIRNPRP | -0.334
32 | RRIRGRPPRLPRPRPRPFIAPRP | 0.245
33 | RRIRVRPPRLPRPRPRPKHTPRP | -0.177
34 | RRIRRRPPRLPRPRPRPTKMPRP | 0.248
35 | RRIRGRPPRLPRPRPRPNERPRP | 0.108
36 | RRIRSRPPRLPRPRPRPAIKPRP | -0.352
37 | RRIRVRPPRLPRPRPRPHCPPRP | -0.173
38 | RRIRERPPRLPRPRPRPRKNPRP | -0.0182
39 | RRIRWRPPRLPRPRPRPIDGPRP | 0.19
40 | RRIRSRPPRLPRPRPRPIHVPRP | -0.154
41 | RRIRIRPPRLPRPRPRPHQPPRP | -0.421
42 | RRIRKRPPRLPRPRPRPHRQPRP | 0.277
43 | RRIRHRPPRLPRPRPRPAAKPRP | 0.218
44 | RRIRGRPPRLPRPRPRPNVHPRP | 0.167
45 | RRIRERPPRLPRPRPRPFYSPRP | -0.795
46 | RRIRVRPPRLPRPRPRPLRQPRP | 0.395
47 | RRIRARPPRLPRPRPRPAPIPRP | 0.448
48 | RRIRNRPPRLPRPRPRPEMFPRP | 0.0119
49 | RRIRCRPPRLPRPRPRPKSYPRP | -0.443
50 | RRIRKRPPRLPRPRPRPDMRPRP | 0.0676

Row | Sequence | shrunken log2 fold change
51 | RRIRRRPPRLPRPRPRPEDGPRP | 0.445
52 | RRIRWRPPRLPRPRPRPHQYPRP | -0.29
53 | RRIRLRPPRLPRPRPRPFNWPRP | -0.223
54 | RRIRARPPRLPRPRPRPNAWPRP | 0.44
55 | RRIRVRPPRLPRPRPRPYDIPRP | -0.279
56 | RRIRTRPPRLPRPRPRPRPHPRP | 0.296
57 | RRIRSRPPRLPRPRPRPDFCPRP | 0.0315
58 | RRIRHRPPRLPRPRPRPVLCPRP | -0.273
59 | RRIRWRPPRLPRPRPRPMRDPRP | 0.814
60 | RRIRDRPPRLPRPRPRPSQFPRP | -0.181
61 | RRIRGRPPRLPRPRPRPIASPRP | 0.524
62 | RRIRPRPPRLPRPRPRPLSAPRP | 0.281
63 | RRIRYRPPRLPRPRPRPRSAPRP | -0.0647
64 | RRIRVRPPRLPRPRPRPGLEPRP | 0.0118
65 | RRIRVRPPRLPRPRPRPGCQPRP | -0.0161
66 | RRIRIRPPRLPRPRPRPNFDPRP | 0.235
67 | RRIRIRPPRLPRPRPRPNHNPRP | -0.518
68 | RRIRVRPPRLPRPRPRPLAWPRP | 0.0442
69 | RRIRNRPPRLPRPRPRPHGNPRP | -0.189
70 | RRIRLRPPRLPRPRPRPGTLPRP | 0.0174
71 | RRIRNRPPRLPRPRPRPYIDPRP | 0.0433
72 | RRIRRRPPRLPRPRPRPQSGPRP | 0.121
73 | RRIRMRPPRLPRPRPRPKVAPRP | -0.0166
74 | RRIRQRPPRLPRPRPRPDCGPRP | 2.88
75 | RRIRSRPPRLPRPRPRPQITPRP | -0.457

Row | Sequence | shrunken log2 fold change
76 | RRIRNRPPRLPRPRPRPIWRPRP | 0.00377
77 | RRIRARPPRLPRPRPRPWNTPRP | -0.427
78 | RRIRPRPPRLPRPRPRPCSTPRP | -0.173
79 | RRIRHRPPRLPRPRPRPASMPRP | 0.0822
80 | RRIRTRPPRLPRPRPRPICCPRP | 0.0718
81 | RRIRQRPPRLPRPRPRPKFTPRP | 0.025
82 | RRIRPRPPRLPRPRPRPPPWPRP | 0.588
83 | RRIRTRPPRLPRPRPRPTSNPRP | -0.43
84 | RRIRQRPPRLPRPRPRPVFSPRP | -0.192
85 | RRIRKRPPRLPRPRPRPTYDPRP | -0.0829
86 | RRIRVRPPRLPRPRPRPCMYPRP | -0.387
87 | RRIRGRPPRLPRPRPRPHYNPRP | -0.265
88 | RRIRIRPPRLPRPRPRPKFDPRP | -0.18
89 | RRIRRRPPRLPRPRPRPPSIPRP | -0.212
90 | RRIRGRPPRLPRPRPRPEEDPRP | -0.0499
91 | RRIRNRPPRLPRPRPRPLKCPRP | 0.0144
92 | RRIRARPPRLPRPRPRPATPPRP | 0.894
93 | RRIRCRPPRLPRPRPRPRSDPRP | -0.101
94 | RRIRLRPPRLPRPRPRPTPPPRP | 0.648
95 | RRIRVRPPRLPRPRPRPASSPRP | -0.122
96 | RRIRTRPPRLPRPRPRPKAPPRP | 0.317
97 | RRIRWRPPRLPRPRPRPHRPPRP | -0.135
98 | RRIRIRPPRLPRPRPRPGPYPRP | -0.376
99 | RRIRWRPPRLPRPRPRPHFRPRP | 0.0695
100 | RRIRSRPPRLPRPRPRPVKSPRP | -0.127

Row | Sequence | shrunken log2 fold change
101 | RRIRFRPPRLPRPRPRPAEEPRP | 0.105
102 | RRIRRRPPRLPRPRPRPDWLPRP | 0.365
103 | RRIRSRPPRLPRPRPRPGNNPRP | -0.354
104 | RRIRTRPPRLPRPRPRPMWQPRP | 0.0135
105 | RRIRARPPRLPRPRPRPNREPRP | 0.226
106 | RRIRDRPPRLPRPRPRPMGKPRP | 3.67
107 | RRIRPRPPRLPRPRPRPNFQPRP | -0.00527
108 | RRIRWRPPRLPRPRPRPPCDPRP | 0.255
109 | RRIRGRPPRLPRPRPRPYLDPRP | 0.0767
110 | RRIRARPPRLPRPRPRPEAIPRP | 0.839
111 | RRIRCRPPRLPRPRPRPDVCPRP | -0.0548
112 | RRIRDRPPRLPRPRPRPRTRPRP | 0.0925
113 | RRIRRRPPRLPRPRPRPMLQPRP | -0.274
114 | RRIRNRPPRLPRPRPRPRRTPRP | 0.135
115 | RRIRPRPPRLPRPRPRPKIMPRP | -0.437
116 | RRIRDRPPRLPRPRPRPKVNPRP | -0.287
117 | RRIRSRPPRLPRPRPRPYRGPRP | -0.131
118 | RRIRNRPPRLPRPRPRPFYCPRP | -0.937
119 | RRIRRRPPRLPRPRPRPNSGPRP | 0.279
120 | RRIRTRPPRLPRPRPRPPIKPRP | -0.368
121 | RRIRWRPPRLPRPRPRPNSCPRP | 0.0578
122 | RRIRHRPPRLPRPRPRPYHFPRP | -0.686
123 | RRIRLRPPRLPRPRPRPAPLPRP | 0.273
124 | RRIRSRPPRLPRPRPRPAKGPRP | 0.176
125 | RRIRNRPPRLPRPRPRPDMLPRP | -0.116

Reference: the supplement of paper PMC9112550, “Optimization of the antimicrobial peptide Bac7 by deep mutational scanning” (BMC Biology, 2022)
